Values quoted from earlier work as cited in US20190351024A1, “IMMUNOCYTOKINES WITH PROGRESSIVE ACTIVATION MECHANISM” (PHILOGEN S.p.A., priority 2016, published 2019).

Conditions: past clinical trials; cited from earlier work

TNF-α
maximum tolerated dose: 150-300 μg/m^2/day
